In the experiment the target is TDP2 used in vitro (construct not stated) (UniProt O95551).

What is called Kd is the equilibrium constant for the complex coming apart.

Substance “SUMO2 used in vitro (from UniProt P61956 10-93) (natural protein)” returned a Kd of 880 nM.

The values above are taken from PMC5623066.
